Test: label from the status in PepcDB records

Sequence	protein production
MKARLLIVVAVLALTACATTTSPTGRRQVVGGVSQQQLDQLGAQSFAQTKAKEKVSTDGKQNAYVQCVVNALVAQLPPQWRETKWETALFVDNEANAFALPGGKVGVNTGIFTVAKTQDQLAAVLGHEIGHVISRHHEERITRQLGAQTGLGIIGALAGAAYGDGAASAVNQVGGMTAQTVFLLPGSRTQESEADVVGQRLMAQAGFDPAQAVTLWQNMMAASGNRQPQWLSTHPDPANRIRELQADVAQLEPVYQQAKQSGRAPRCG	failed
NLKDVYVSIADYEGDEETAGFQEGVSMEVLERNPNGWWYCQILDGVKPFKGWVPSNYLEKKN	not failed
VTLLVKSPNQRHRDLELSGDRGWSVGHLKAHLSRVYPERPRPEDQRLIYSGKLLLDHQCLRDLLPKQEKRHVLHLVCNVK	not failed
MSNVRIRQATTDDLIGIFEAHRNSVERLCTSEYSDQQIRMWLDGRSPETYREAVEKGSLWLAEGEQIEGFVELDGNEVSKLFIRGDVARRGLGSRLLEVALARLRASGASSAYLEATLTAEGFYAYHGFQKIGEGTFSRGNSPVSIEIIKMERPL	failed
MGNSITVKRKRAKVMKIDGETFRIKTPVTAREVTADYPGYVLLDSQAVKHFGVRSKPLEPNQTLKPKKTYFLVELPKLPPETTAVDTENKLPYRRVMSGIHVGAKERLDMLMLSRRTVSDVTIGRSDGGDGFGPELGPGHTSVRLRLPRSQITKLMEENNNDASAIAEKILGIYMERSGELGGGRGGVDGRRELGSGEIKAREVSFAGEGGRELPVLWSRSGK	failed
HSHSDKHPVTWQPSKDGDRLIGRILLNKRLKDGSVPRDSGAMLGLKVVGGKMTESGRLCAFITKVKKGSLADTVGHLRPGDEVLEWNGRLLQGATFEEVYNIILESKPEPQVELVVSR	not failed
MVFTLADSVSQVALGPSWLDPMELLSGSGPFGSFILPAMLAIVFIESGLLFPLLPGDSLLFTGGLLANQADPFAPLWLVLILCPIAAILGDQVGYWIGHKFHPRLVNRPDGRIFKQEYLKQTEDFFEKHGPVTIILCRFVPIVRTYAPLVAGMAGMRYRTFIIYNMIGGILWGSGVVALGAALGQFDFVRNNIDLIFLLIVFISVVPGLVGMARKLADGHKQANTEPQENPAVQTAPVKTQEAQEAPQN	failed
MSAQEPWTAATAKGTALKNTTLLKALTIGILSILALIPLGIIMDLTSDREMLYHSVVEEIGRSWGEQQTLSGPALVIPYRYFVMEEEVSNDGKTRREVKRTYQDELVILPKKLALDLDLKHDFRTRGIYQSLVYSAALKGQADFSLNSYDIPNLIALDNKNARLVFGVSSNQAIDKVEKIEIKGDSALLSGSLMSGTGLTTGGLEKGFNQGIQVSEASDFSVNFAMTLRGSQSISALPLGEQTLINIQADWPHPSFKGLLPAEREINAKGFTASWNISHLTRNYPQEFVKSNQSTLTEVVANAILFEPVTHYGKIDRSVKYGLLFIVLTFIMLFIFELGQKTSLSIVQYILVGSAMALFYLLLLSLSEHLAFLQAYLIAACIPVLSVSTYVGSATASLKRGVIVGTMLVSLYAVLYSILQLEDYALLMGTGLLVVVLLILMFVTRHQSKNTAQ	not failed
MRISAKKPRPRPIFALCAPYPEAQPQEAEVRVRTSILAFVLAAVSTIAGAQDSGLTSLETTDAGRSWLAVGRLDIDGTGFCTGALIAPDLVLTAAHCLYDKTTGQRIDPARIEFLAGWRRGRASAYRRVARAVHHPDYLYEGAVTAERVRNDLALLKLSQPIRNTTVVPFETGNRPMRGDAVQVVSYAHDRAEAPSLQEACAVMARQQGVLVMSCDVDFGASGSPVFSLSDSTPRIVSVVSAKAEVDGARVALGTSLDDTLTFLMGELDSHKRAEIPTVPRVNRLSASGQGSASGAKFVRP	failed
DTRWLAFNIQRAVFSDRRVREAITLAFDFEWMNKALFYNAWSRTNSYFQNTEYAARNYPDAAELVLLAPMKKDLPPEVFTQIYQPPVSKGDGYDRDNLLKADKLLNEAGWVLKGQQRVNATTGQPLSFELLLPASSNSQWVLPFQHSLQRLGINMDIRKVDNSQITNRMRNRDYDMMPRLWRAMPWPSSDLQISWSSEYINSTYNAPGVQSPVIDSLINQIIAAQGNKEKLLPLGRALDRVLTWNYYMLPMWYMA	failed
MSDLITLAQLSQGYRYNSDSLILADFILKQGIKGAVFDVGAGCGIIGILLKKNIANLSLSLIDIQKENIELIEKNLKSNKIQGDIFHDDFNQFQIIKKFDFIVCNPPFYRQGAYKSEDQHKAISKFQEFLPLHSFLAKTNSMLKPNGTLYFCYEALALDEICFILKDMKMKITKLCFVHTHQSKKARLVLIQVKKGSKSPCEILPPFFVYENEILSKQMQEIHLRFRLKSYDI	failed
MLKSKRKEIILSRLEQNKSVTLDELTSILETSESTVRRDLDELESAGFLKRVHGGAELPYSLGQELSNQEKAIKNVQKKLDIARQTAKLIAKQDVIFIDAGTTTELLIDFLPHEQLTVVTNSIHHAAKLVDRGIKTIIIGGAVKHSTDASIGQVAINQIRQITVDKAFLGMNGIDEVYLTTPDLEEAAIKEAIINNSQQTFILMDSSKIGQVTFAKVKEINDINLVTNKTDSELMTIIKEKMKVIQV	failed
MFMIKVITPETNHPKEGGILSALVSIYNCTIHIRKPRFTADQYKKYLHDHNQLLSHFVLHEHHSLAKEFPVMGVHLKELDRINPAQVHPDIKIISTSIHSIADAGNLSHPFEYIFYSPLFQSISKENYGTNNSLADLKKTVSELKEQTGIPIIGLGGIYEANIDLVKKSGFDGAALLGAVWVQSDPLAAFGRIASMILEHHHHHH	failed
MTAAVARALTLWGLDGASYELAAQRENEVWKVSDGTRHYALRFHRPAYRSEAELTSELLWVEMLGQAGMQVPQPVRQPDGAVLGRIEGRHVSLLDWLGGRPLGKMGQLAPDLDAEAVGRMIGAQMARMHDLSDRWTPPAGFQRPDWRRSGLLGADPLWGRFWEHPDLDPAQRQLMIATRERALACFEDFAPGADQGLIHADLVVENVLVDHDRVAFIDFDDGAWGYRDFDLATVLVKFIGQPDYDRLRAGLCAGYDARRRVEPGTLDFMLLLRALTYPGWIMSRLDEPGGRQRSARMLDTALRLARDFMEERQR	failed
AAKGNMQCNIFVPAGTSKGKTTQTRLYGANCIEVEGTREDVALAAIESSVTHGSHYVGHNWHPLFIEGVKSIAYEIWEQCGYKAPDNFVVPAGNGSLLAGAYIGFSELLKGGEISKLPRLFGIQSESIQPFVQTFNNKEINITSEDTIAEGIKIKRSSRMNEIVQFVKETNGNFISVNEQQIQSALKEMGAQGYFIEPTSATAFAGIAQLIKTQEIKPDELTVGVVTGNGLKATNSIEHLI	failed
MSHGIKLLVSGDHACFTRPEMKAERVSYDVMTPSAARGILEAIHWKPAITWVIDAIHVLKPIRFQTLRRNEVGGKVPAGKVKSAMTKGTLDGLALLADEDRQQRATTLLVDVAYVIEAHFTLTDKAGPEDNPGKHLDIFTRRARKGQCFHQPCLGTREFPARFELIDGDRPIPAAVNRSEDLGFMLWDIDHAGDRSSMFFRARMDRGVVRVPAPSSAEIRR	failed
MKTIQPCSVEDIQSWLIDQFAQQLDVDPDDIDMEESFDNYDLNSSKALILLGRLEKWLGKELNPVLIFNYPTIAQLAKRLGELYL	not failed
MSGKTSITSRSDEFQRQIDHKEMPRDHQIERHTHIHTTRYRGGSLVEEVIEKLERFKVRTVNILVGGEDDEQKK	failed
MGIRNSKTFTSTDIATYYDVSEDHYMYFWDLNQSHSLHYGYWDASTKTFREALANINRVLAEKASITAGTRVLDAGCGVGGSSIWLAKNKQANVTGITVSKKQAARANTSAAAVNPGGTAVFDVQDYTNTPYHSESFDVVWAIESVCHAANKEDFIKEAYRLLKPGGQLIMADFFIVKDGNADDQRSIDAWGHGWAVPFFEKKDAFQHMLLKAGFNTADMIDSTEHIRRSAKRLYYAFFPGWIISKLYNLVNRRTTEFSKNNVYTAYYQYKTLKKELWKYYIVHAKK	failed
MTELAQLQASAEQAAALLKAMSHPKRLLILCMLSGSPGTSAGELTRITGLSASATSQHLARMRDEGLIDSQRDAQRILYSIKNEAVNAIIATLKNVYCP	not failed
MRKVSISILFMLVSLTWGTTWLAMRIAVETIPPVFATGMRFMFAAPFLIIIAWLRKKTLLFPPGQRLFQFVICIFYFSIPFSLMIYGETYVNSGLAAIIFANMPVAVLIASVLFLNEKAKLMQIAGLTIAITALTGILLEEANTSTESHWQGITALISAVLIHAIIYTQCKKRSCTVSVITFNALPCLLAGLILSATGWFFERPQVSTFSVHSILATLYLGAFAGVFGILCYFALQQKANAFQASLVFLIFPLIAVSLEDYIYGYAISTHSMLLIIPLAIGIFLTLVARNIPVTSRCRDNSSQE	failed
MTARYIAIDWGSTNLRAWLYQGEECLESRQSEAGVTRLNGRSPAAVLAEITQHWRDGATPVVMAGMVGSNVGWKIAPYLPLPAAFSDIGQQLTAVGDNIWIIPGLCVSRDDNHNVMRGEETQLLGARALAPSSVYVMPGTHCKWVLADRRQIHDFRTVLTGELHHLLLQLSLVGAGLPPQETSAAAFAAGLQRGINNPAVLPQLFEVRASHVLGALPREQVSEFLSGLLIGAEVATLSDTFAGQQAISLVAGSSLTSRYQQAFAAIGREVSAVAGDTAFQTGIRSIAYAVAN	not failed
MTAARSAPSPAGAPRPGLRERKKTRTREAIRAATYGLIRQQGYEATTVEQIAERAEVSPSTVLRYFPTREDIVLTDEYDPVMAAELAARPAGEPWSDSLRHVLRKALGLGAGEEAELIRLRTRLLAEVPAVRARMLENMSDTGRMLARAIADRTGLDPDGLEVRIVSMSLVGGLMEVSRYWAEHDHEESLAELVDRALDALENGLPALRESDRESDREGDRGGHREDRREGPRKD	not failed
MKIADGVYVHFIPTQKYKTNRIVFRMTGSLNKQTIAKRALVSQMLATANQTYPTVQSFKERLASLYGTQLSTKVSTKGLTHSVDIELTYLKDFFIPMNTSLFWEVLGFLMDCLYNPLSIVAQYQNKVFDIEKQNLMTYLDVDTENNYYYSEVQGRELYFVNEALKVPKYGRVELVEAETSFTAYQEFQSMLTKDRIDIFMVGEFDDYQVLRGLHRFPLEGRQVDLQFSYNQSYSKVVKEKIETRQTSQSILQLGYQFPCQYGDKDYFALIVFNGMLGEFAHSALFTKIREKEGLAYSIGSQFDAFTGLLEIYAGIEKSNRNQAMRGIIRELNHIKLGRFSSSLFNQTKKIIRMNALLSEDHALTLVEQHFNKVIFGDKKISLEDWLDKIEKVTKKDVCRIARQVKLQSLFFLEGVS	failed
TIDIDLQKKVESLLEKQISKLRSQGAKDMDNALMVVQNPKNGDILAIAGKQIDKQGKLKDYDIGNFTAQYTVGSSVKGGTLLAGYQNKAINVGETMVDEPLKFQGGLTKRSYFNKNGHVSIDDKQALMHSSNVYMFKTALKLAGDPYTSGMSLPNNIADAGRKLRKGLNQVGLGLKTGIDLPNETPGQIEPLTNNPGNYLDLAIGQYDTYTPLQLSQYVSTIANDGYRIQPHIGLSIYESTNKDETGPLKRKIKGNVLNKVNNSNDEIKEVQEGFKMAFNEKQGTGYASFRNTVVPSAGKTGTAEVFQDGEPRVNSTYIGYAPVDDPKLSFSIVYTNQPVPPPWLNGGDLGRDVINYYFKDKDNKKDDSQSNNEEKED	failed
MSKANVYQQRPEPGVHAESPLHHAELHKLAGKTAAKAGIVLREKKLLGHLVLRGDAADPAFAAAVHQALGLELPVALTLVASGETSLQWLAPDEWLLIVPGGEEYAVEQRLRQALGEELHYAVVNVSGGQTLLELSGANVRELLMKSTSYDVHPSNFPVGKAVGSIFAKSQCVIRHTGEDTWELVVRRSFADYFWLWLQDASAEYGLQVAA	failed
MRKFILYWALYGLIELIMYVWLFQVIGFWPLLFIQIASSAFGVFIFKRLGGNLFRNLRDGRTVAPYLLDSLCFFIAGFLLIIPGVITTILGLLIFIPFSRKLLKPKLTKWLGNQKKHTQYYYFDM	failed

From a protein production outcome set (Wang et al. 2014)
